In patent EP2057188B1:
Several values for one entry are separate records, joined by “and”; a condition that tells them apart may be missing. Identical values can stand only once. Like-named read-outs stand apart in the source and are kept apart here.

Legend:
[1] = target: T1, GIP Receptor (Rattus norvegicus (Rat)), P43219; assay: cell-based or functional assay
T1 chain: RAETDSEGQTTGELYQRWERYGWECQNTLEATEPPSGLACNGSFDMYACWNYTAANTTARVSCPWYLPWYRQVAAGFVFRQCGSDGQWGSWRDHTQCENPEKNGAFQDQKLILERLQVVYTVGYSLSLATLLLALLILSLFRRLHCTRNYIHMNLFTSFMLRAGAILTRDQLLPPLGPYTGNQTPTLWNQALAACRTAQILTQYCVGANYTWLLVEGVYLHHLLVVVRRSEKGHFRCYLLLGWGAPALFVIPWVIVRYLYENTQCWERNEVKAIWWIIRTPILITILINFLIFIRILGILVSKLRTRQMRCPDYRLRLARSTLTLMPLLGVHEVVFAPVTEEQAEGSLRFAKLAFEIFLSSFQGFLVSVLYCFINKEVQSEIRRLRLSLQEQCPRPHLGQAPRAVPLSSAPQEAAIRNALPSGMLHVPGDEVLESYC

[2] = target: T1, GIP Receptor (Rattus norvegicus (Rat)), …; assay: cell-based or functional assay
[3] = target: T2, human GIP receptor (human), P48546; assay: 125I-GIP displacement, HEK-GIPR
T2 chain: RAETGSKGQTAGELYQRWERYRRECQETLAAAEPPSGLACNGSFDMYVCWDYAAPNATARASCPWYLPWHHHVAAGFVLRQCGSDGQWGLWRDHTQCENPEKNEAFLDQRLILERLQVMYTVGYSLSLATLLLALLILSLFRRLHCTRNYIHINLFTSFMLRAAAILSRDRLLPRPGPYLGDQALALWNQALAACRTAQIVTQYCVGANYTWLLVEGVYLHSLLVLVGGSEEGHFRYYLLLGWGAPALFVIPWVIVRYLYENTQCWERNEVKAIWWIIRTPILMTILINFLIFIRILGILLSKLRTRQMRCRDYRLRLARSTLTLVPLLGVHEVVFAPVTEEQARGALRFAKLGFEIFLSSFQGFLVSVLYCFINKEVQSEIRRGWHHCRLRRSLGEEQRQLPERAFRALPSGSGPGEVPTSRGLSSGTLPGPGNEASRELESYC

[4] = target: T1, GIP Receptor (Rattus norvegicus (Rat)), …; assay: GIP RBA
[5] = target: T1, GIP Receptor (Rattus norvegicus (Rat)), …; assay: GIP RBA, RIN
[6] = target: T2, human GIP receptor (human), P48546; assay: 125I-GIP displacement, HEK-GIPR
[7] = target: T2, human GIP receptor (human), P48546; assay: 125I-GIP displacement, 10 nM analog, HEK-GIPR

YAEGTFISDYSIAMDKIHQQDFVNWLLAQKPSSGAPPPS (modifications not checked) [0601GIP4178]
Cyclase [1]: 96 | Cyclase [2]: 36.2 | IC50 [3]: 0.17 nM

YAEGTFISDYSIAMDKIHQQDFVNWLLAQKPSSGAPPPS (modifications not checked) [0601GIP4252]
IC50 [4]: 5.6 nM | Cyclase [2]: 154

YSDGTFISDYSIAMDKIHQQDFVNWLLAQKPKKIRYS (modifications not checked) [0601GIP4386]
IC50 [5]: 156 nM | GIPR Cyclase [1]: 56

YAEGTFISDYSIAMDKIHQQDFVNWLLAQKPKKIRYS (modifications not checked) [0601GIP4233]
IC50 [3]: 0.21 nM | IC50 [6]: 0.12 nM and 0.41 nM | %Inh 10nM [7]: 89%
